# Measurements published in patent publication US20140341938A1.
# Target: SIINFEKL:K^b complex (SIINFEKL complexed to H-2K^b) on LK^b cells (murine) (UniProt P01901)
# Assay: cell-based or functional assay
# UniProt P01901, sequence (P01901 22-369, one chain of several): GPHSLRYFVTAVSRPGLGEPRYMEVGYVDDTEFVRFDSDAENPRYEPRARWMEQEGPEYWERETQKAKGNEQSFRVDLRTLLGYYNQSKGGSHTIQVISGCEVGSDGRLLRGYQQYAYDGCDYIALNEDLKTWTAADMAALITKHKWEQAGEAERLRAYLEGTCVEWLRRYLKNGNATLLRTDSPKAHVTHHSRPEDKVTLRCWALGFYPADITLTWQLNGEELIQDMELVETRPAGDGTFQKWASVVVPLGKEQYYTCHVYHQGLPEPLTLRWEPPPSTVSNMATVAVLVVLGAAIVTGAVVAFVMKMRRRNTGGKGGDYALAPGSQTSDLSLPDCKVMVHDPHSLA
sequence,measurement,value
T cell receptor of the SIINFEKL:Kb-specific T hybridoma B3Z (TCR),β-galactosidase measured with a luminescent substrate after overnight co-incubation of SIINFEKL-pulsed LK^b cells with B3Z; limit of detection given as the peptide pulse concentration,5 ng/mL
